Results from publication PMC7567794 (Scientific Reports, 2020).
Changes are numbered by the printed parent chain. Names may count otherwise.

B1: D3h44 Fab L-H91E (Fab, V domains shown)
VH: EVQLVESGGGLVQPGGSLRLSCAASGFNIKEYYMHWVRQAPGKGLEWVGLIDPEQGNTIYDPKFQDRATISADNSKNTAYLQMNSLRAEDTAVYYCARDTAAYFDYWGQGTLVTVSS
VL: DIQMTQSPSSLSASVGDRVTITCRASRDIKSYLNWYQQKPGKAPKVLIYYATSLAEGVPSRFSGSGSGTDYTLTISSLQPEDFATYYCLQEGESPWTFGQGTKVEIK
notes: as the heavy chain of m2 (PDB 1JPS chain H); as the light chain of m2 (PDB 1JPS chain L) with the stated change; Tag as for m2; source: ExpiCHO, purified (Ni-NTA, SEC)
B2: D3h44 Fab H-N57Y (Fab, V domains shown)
VH: B1 VH with N57Y
VL: B1 VL with E91H
notes: as the heavy chain of m2 (PDB 1JPS chain H) with the stated change; as the light chain of m2 (PDB 1JPS chain L); Tag as for m2; source: ExpiCHO, purified (Ni-NTA, SEC)
B3: D3h44 Fab H-A101S/H-A102H double-point mutant (Fab, V domains shown)
VH: B1 VH with A101S, A102H
VL: B1 VL with E91H
notes: as the heavy chain of m2 (PDB 1JPS chain H) with the stated changes; as the light chain of m2 (PDB 1JPS chain L); Tag as for m2; source: ExpiCHO, purified (Ni-NTA, SEC)
B4: D3h44 Fab L-H91N (Fab, V domains shown)
VH: B1 VH
VL: B1 VL with E91N
notes: as for B1
B5: D3h44 Fab H-K30Q (Fab, V domains shown)
VH: B1 VH with K30Q
VL: B1 VL with E91H
notes: as for B2
B6: D3h44 Fab H-I59H (Fab, V domains shown)
VH: B1 VH with I59H
VL: B1 VL with E91H
notes: as for B2
B7: D3h44 Fab H-Y33Q/H-A101R double-point mutant (Fab, V domains shown)
VH: B1 VH with Y33Q, A101R
VL: B1 VL with E91H
notes: as for B3
B8: D3h44 Fab L-N34D (Fab, V domains shown)
VH: B1 VH
VL: B1 VL with N34D, E91H
notes: as for B1
B9: D3h44 Fab H-A101V (Fab, V domains shown)
VH: B1 VH with A101V
VL: B1 VL with E91H
notes: as for B2
B10: D3h44 Fab L-H91Q (Fab, V domains shown)
VH: B1 VH
VL: B1 VL with E91Q
notes: as for B1
B11: D3h44 Fab H-K30Q/H-E54H double-point mutant (Fab, V domains shown)
VH: B1 VH with K30Q, E54H
VL: B1 VL with E91H
notes: as for B3
B12: D3h44 Fab L-H91S (Fab, V domains shown)
VH: B1 VH
VL: B1 VL with E91S
notes: as for B1
B13: D3h44 Fab L-N34D/L-H91S double-point mutant (Fab, V domains shown)
VH: B1 VH
VL: B1 VL with N34D, E91S
notes: as the heavy chain of m2 (PDB 1JPS chain H); as the light chain of m2 (PDB 1JPS chain L) with the stated changes; Tag as for m2; source: ExpiCHO, purified (Ni-NTA, SEC)

molecular target: T1, tissue factor (S33 to E251) (Homo sapiens, UniProt P13726); assay: SPR; Biacore 8K; TF immobilised on a CM5 chip by amine coupling (450-750 response units); Fab as analyte; single-cycle kinetics, association 120 s, dissociation 1800 s, no regeneration; PBS with 0.005% Tween-20; three measurements; conditions: both partners purified
T1 construct: tissue factor (TF), residues S33 to E251; the antigen of the antibody D3h44 in PDB 1JPS; The tag was removed with Ulp1; tag-free TF was used; Antigen residues named in the text (S202, K169, P194, I152) follow the numbering of PDB 1JPS, not that of the construct limits; also called TF; antigen; source: E. coli BL21 (DE3), purified (Ni-NTA, SEC); not shown: His6, N-terminal, cleaved; SUMO, …
T1 sequence (P13726 33-251): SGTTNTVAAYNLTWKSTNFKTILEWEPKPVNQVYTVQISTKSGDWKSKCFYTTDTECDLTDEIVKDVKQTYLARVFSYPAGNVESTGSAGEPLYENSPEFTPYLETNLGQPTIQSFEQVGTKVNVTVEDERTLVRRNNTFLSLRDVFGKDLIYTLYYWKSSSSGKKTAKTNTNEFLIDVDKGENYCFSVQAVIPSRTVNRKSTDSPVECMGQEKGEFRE

| Kd | koff | kon | binding result | Binder |
| --- | --- | --- | --- | --- |
| 0.02 nM | 2.7e-05 s⁻¹ | 1.4e+06 M⁻¹ s⁻¹ |  | B1 |
| 0.015 nM | 1.8e-05 s⁻¹ | 1.3e+06 M⁻¹ s⁻¹ |  | B2 |
| 0.15 nM | 0.00018 s⁻¹ | 1.2e+06 M⁻¹ s⁻¹ |  | B3 |
| 0.2 nM | 0.00026 s⁻¹ | 1.3e+06 M⁻¹ s⁻¹ |  | B4 |
| 0.097 nM | 0.00014 s⁻¹ | 1.5e+06 M⁻¹ s⁻¹ |  | B5 |
| 15 nM | 0.038 s⁻¹ | 3.6e+06 M⁻¹ s⁻¹ |  | B6 |
|  |  |  | no binding | B7 |
| 0.31 nM | 0.00062 s⁻¹ | 2e+06 M⁻¹ s⁻¹ |  | B8 |
| 0.14 nM | 0.00018 s⁻¹ | 1.3e+06 M⁻¹ s⁻¹ |  | B9 |
| 0.23 nM | 0.00038 s⁻¹ | 1.7e+06 M⁻¹ s⁻¹ |  | B10 |
| 0.029 nM | 2.6e-05 s⁻¹ | 940000 M⁻¹ s⁻¹ |  | B11 |
| 17 nM | 0.059 s⁻¹ | 1.6e+07 M⁻¹ s⁻¹ |  | B12 |
| 0.025 nM | 3e-05 s⁻¹ | 1.2e+06 M⁻¹ s⁻¹ |  | B13 |
